Series [1] has as its system Saccharomyces cerevisiae. As to the kind of experiment: protein stability index of tFT-peptide fusion (C-terminal peptide) (PSI (0-1 scale)); higher = more stable (slower turnover). The procedure:
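MPS profiling in S. cerevisiae of the tFT-X12 degron library: putative degron peptides plus stable controls, 12 aa, fused to the C-terminus of a sfGFP-mCherry timer. Cells are FACS-sorted into 8 mCherry/sfGFP bins and deep-sequenced. PSI runs from 0 (unstable) to 1 (stable). Backgrounds are wild type, das1Δ and doa10Δ at 30 °C, and wild type, das1Δ, cdc34-1 and cdc53-1 at 37 °C; 2-3 technical replicates each.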

The subject of series [2] is Saccharomyces cerevisiae. Described as above. Conditions: genetic background: wild type; temperature: 30 C.
Where [3] appears, read: genetic background: cdc34-1, temperature: 37 C.
Setting [4] is: genetic background: cdc53-1, temperature: 37 C.
Setting [5] is: genetic background: das1 deletion, temperature: 30 C.
Where [6] appears, read: genetic background: das1 deletion, temperature: 37 C.
[7] abbreviates: genetic background: doa10 deletion, temperature: 30 C.
The mark [8] stands for this setting: genetic background: wild type, temperature: 30 C.
Where [9] appears, read: genetic background: wild type, temperature: 37 C.

± gives the standard deviation of the averaged measurements.
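Further: PSI is a weighted mean of sequencing reads over stability bins, variants kept only with over 10 reads, mCherry proximal and sfGFP distal, peptide attached via GGGS linker.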

As to PRQPSKSNASNR, the protein stability index in series [1] (setting [3]) stood at 0.692 ± 0.044; in series [1] (setting [4]), 0.7277 ± 0.00076; in series [1] (setting [5]) it was 0.623 ± 0.023; in series [1] (setting [6]), 0.722 ± 0.015; in series [1] (setting [7]), 0.64909 ± 0.00052; in series [1] (setting [8]) it was 0.635 ± 0.0095. The protein stability index was determined as 0.701 ± 0.022 in series [1] (setting [9]) and 0.582 ± 0.13 in series [2].

With PSIALVRLDVIC, the protein stability index in series [1] (setting [3]) amounted to 0.383 ± 0.0059; in series [1] (setting [4]), 0.471 ± 0.0073; in series [1] (setting [5]), 0.32 ± 0.038; in series [1] (setting [6]), 0.46 ± 0.004; in series [1] (setting [7]), 0.297 ± 0.011; in series [1] (setting [8]), 0.327 ± 0.031. Also, the figures for the protein stability index in series [1] (setting [9]) and in series [2] were 0.443 ± 0.0051 and 0.392 ± 0.017, respectively.

In the case of PSPFHSFYLRLI, the protein stability index in series [1] (setting [3]) was 0.5716 ± 0.0014; in series [1] (setting [4]) it was 0.643 ± 0.009; in series [1] (setting [5]), 0.579 ± 0.011; in series [1] (setting [6]), 0.712 ± 0.028; in series [1] (setting [7]), 0.263 ± 0.0033; in series [1] (setting [8]) it was 0.249 ± 0.014. Besides, the protein stability index in series [1] (setting [9]) is 0.483 ± 0.0017; in series [2], 0.398 ± 0.033.

With PSPPPYAPPIPA, the protein stability index in series [1] (setting [3]) worked out at 0.549 ± 0.03; in series [1] (setting [4]) it was 0.611 ± 0.055; in series [1] (setting [5]), 0.44 ± 0.023; in series [1] (setting [6]), 0.5857 ± 0.0057; in series [1] (setting [7]), 0.416 ± 0.019; in series [1] (setting [8]) it was 0.447 ± 0.021. Besides, the protein stability index in series [1] (setting [9]) worked out at 0.563 ± 0.02; in series [2] it was 0.488 ± 0.0057.

PSSPTPPPSSSP: the protein stability index in series [1] (setting [3]) turned out to be 0.655 ± 0.021; in series [1] (setting [4]) it was 0.726 ± 0.011; in series [1] (setting [5]), 0.664 ± 0.017; in series [1] (setting [6]), 0.73 ± 0.0086; in series [1] (setting [7]), 0.679 ± 0.017; in series [1] (setting [8]), 0.673 ± 0.011. Besides, the protein stability index in series [1] (setting [9]) amounted to 0.7306 ± 0.0015; in series [2] it was 0.353 ± 0.039.

PSSVKLRVPSLY: the protein stability index in series [1] (setting [3]) amounted to 0.672 ± 0.029; in series [1] (setting [4]) it was 0.762 ± 0.033; in series [1] (setting [5]), 0.623 ± 0.021; in series [1] (setting [6]), 0.7309 ± 0.00087; in series [1] (setting [7]), 0.61091 ± 0.00013; in series [1] (setting [8]) it was 0.636 ± 0.015. The protein stability index in series [1] (setting [9]) amounted to 0.715 ± 0.033; in series [2] it was 0.7075 ± 0.0025.

Take PTPSRPPHPPLR: the protein stability index in series [1] (setting [3]) was determined as 0.704 ± 0.049; in series [1] (setting [4]), 0.752 ± 0.05; in series [1] (setting [5]), 0.633 ± 0.013; in series [1] (setting [6]) it was 0.725 ± 0.054; in series [1] (setting [7]), 0.658 ± 0.025; in series [1] (setting [8]) it was 0.66 ± 0.0015. Moreover, the protein stability index in series [1] (setting [9]) is 0.69 ± 0.0022; in series [2], 0.704 ± 0.02.

As to PVALYPVQAYLT, the protein stability index worked out at 0.5565 ± 0.0049 in series [1] (setting [3]); 0.71 ± 0.025 in series [1] (setting [4]); 0.616 ± 0.012 in series [1] (setting [5]); 0.715 ± 0.022 in series [1] (setting [6]); 0.119 ± 0.01 in series [1] (setting [7]); 0.146 ± 0.017 in series [1] (setting [8]). Further, the figures for the protein stability index in series [1] (setting [9]) and in series [2] were 0.265 ± 0.094 and 0.2307 ± 0.0013, respectively.

For PVFVLFFFSSLV, the protein stability index in series [1] (setting [3]) is 0.421 ± 0.012; in series [1] (setting [4]), 0.533 ± 0.0086; in series [1] (setting [5]) it was 0.371 ± 0.028; in series [1] (setting [6]) it was 0.5579 ± 0.0041; in series [1] (setting [7]) it was 0.329 ± 0.011; in series [1] (setting [8]), 0.35 ± 0.013. For the same sequence, the protein stability index in series [1] (setting [9]) is 0.5151 ± 0.0018; in series [2], 0.44 ± 0.012.

Take PVLIFTWVIVCH: the protein stability index in series [1] (setting [3]) amounted to 0.0357 ± 0.011; in series [1] (setting [4]), 0.0674 ± 0.026; in series [1] (setting [5]), 0.0676 ± 0.026; in series [1] (setting [6]) it was 0.142 ± 0.013; in series [1] (setting [7]) it was 0.0332 ± 0.0019; in series [1] (setting [8]), 0.0533 ± 0.023. The figures for the protein stability index in series [1] (setting [9]) and in series [2] were 0.0899 ± 0.012 and 0.162 ± 0.036, respectively.

On to PVLPPPLLLCPC, for which the protein stability index in series [1] (setting [3]) turned out to be 0.0283 ± 0.018; in series [1] (setting [4]) it was 0.0268 ± 0.011; in series [1] (setting [5]) it was 0.119 ± 0.023; in series [1] (setting [6]) it was 0.11 ± 0.024; in series [1] (setting [7]), 0.0972 ± 0.0096; in series [1] (setting [8]) it was 0.15 ± 0.018. Besides, the protein stability index in series [1] (setting [9]) was 0.0932 ± 0.032; in series [2], 0.22801 ± 2.4e-05.

On to PWEYSSQLVLVI, for which the protein stability index was 0.0478 ± 0.02 in series [1] (setting [3]); 0.0865 ± 0.011 in series [1] (setting [4]); 0.179 ± 0.025 in series [1] (setting [5]); 0.2067 ± 0.0011 in series [1] (setting [6]); 0.155 ± 0.0084 in series [1] (setting [7]); 0.177 ± 0.023 in series [1] (setting [8]). Moreover, the protein stability index in series [1] (setting [9]) was 0.159 ± 0.021; in series [2], 0.281 ± 0.022.

Take QCRLPRPPLSLP: the protein stability index in series [1] (setting [3]) stood at 0.676 ± 0.017; in series [1] (setting [4]) it was 0.7414 ± 0.0062; in series [1] (setting [5]), 0.651 ± 0.022; in series [1] (setting [6]), 0.7354 ± 0.0058; in series [1] (setting [7]), 0.672 ± 0.032; in series [1] (setting [8]), 0.692 ± 0.009. Besides, the protein stability index came to 0.693 ± 0.0099 in series [1] (setting [9]) and 0.436 ± 0.022 in series [2].

As to QPTGYFKLIIIK, the protein stability index in series [1] (setting [3]) came out at 0.317 ± 0.029; in series [1] (setting [4]) it was 0.393 ± 0.072; in series [1] (setting [5]), 0.3 ± 0.044; in series [1] (setting [6]), 0.473 ± 0.047; in series [1] (setting [7]) it was 0.38 ± 0.0083; in series [1] (setting [8]), 0.323 ± 0.067. For the same sequence, the protein stability index worked out at 0.4476 ± 0.0013 in series [1] (setting [9]) and 0.3976 ± 0.0014 in series [2].

As to QPTPQSALAKHQ, the protein stability index in series [1] (setting [3]) worked out at 0.655 ± 0.018; in series [1] (setting [4]) it was 0.721 ± 0.04; in series [1] (setting [5]), 0.6492 ± 0.005; in series [1] (setting [6]) it was 0.731 ± 0.034; in series [1] (setting [7]), 0.3327 ± 0.0025; in series [1] (setting [8]), 0.337 ± 0.0054. Further, the values for the protein stability index in series [1] (setting [9]) and in series [2] were 0.544 ± 0.04 and 0.515 ± 0.04, respectively.

The values are drawn from the supplement of paper PMC10724198.
